Consider 22 molecules from patent US20110251266, “APTAMER FOR NGF AND USE THEREOF” (Shionogi & Co., Ltd., published 2011).

One may read the IC50 as the concentration needed to halve the response being measured. A low value points to higher potency.

Data set [1] addresses T1, beta-NGF (nerve growth factor) (Homo sapiens, UniProt P01138 P01138:122-241). Nature of the data set: SPR; NGF-TrkA and NGF-P75; no PC-12 inhibition. Particulars: tags: R&D Systems human NGF; chain copies: 2. The method, then:
(§1) As directed in BIAcore Company's protocol, Protein A (21181, PIERCE) was immobilized on a CM5 sensor chip. About 1100 RU of human Trk A-Fc fused with the Fc portion of IgG (175-TK, R&D systems) was immobilized thereon. As the analyte, a mixture of NGF (0.1 μM) and each aptamer (0.33 μM) was injected after being allowed to stand for 30 minutes. […] When NGF binds stronger to a receptor than an aptamer, the aptamer may be removed and NGF may bind to the receptor. […] Using the binding amount of NGF and NGF receptor without an aptamer as 100, the binding amount of NGF and NGF receptor added with an aptamer was determined as a correction value. Here, the binding amount is the RU value at the peak top of the sensorgram of BIAcore (RU value immediately after completion of NGF injection). […] A similar experiment was performed for another receptor P75 (p75-Fc; R&D systems).
(In general: SPR reads the build-up and loss of mass on a sensor chip optically.)

Data set [2] has as its target T1, beta-NGF (nerve growth factor). Nature of the data set: cell_activity; Neuroscreen-1 neurite outgrowth; 92% inhibition at 300 nM (Table 5). Particulars: tags: R&D Systems human NGF; chain copies: 2.
Data set [3] shares this target. In words: cell_activity; PC-12 neurite outgrowth, 500 nM aptamer. Particulars: tags: R&D Systems; chain copies: 2. The method, then:
The physiological activity of aptamer was evaluated by a neurite outgrowth suppressive experiment using PC-12 cells. PC-12 cell, which is a cell line derived from rat adrenal gland pheochromocytoma, is a model cell of the nervous system, elongates neurite by NGF stimulation, and differentiates like nerve cells. Whether or not an aptamer inhibits the neurite outgrowth was evaluated. PC-12 cells were seeded on a 96 well flat-bottom plate coated with collagen, and a mixed solution of NGF (final concentration 25 ng/ml, or 1.9 nM) prereacted for 1 hr at 37° C. and an aptamer (final concentration 500 nM) was added to start the cell culture. Thereafter, the same amount of the aptamer was added twice every 24 hr and the level of neurite outgrowth was observed and evaluated on day 3 with a microscope. For evaluation, scores 0-3 were used, where score 0 is no neurite outgrowth, score 1 is slight neurite outgrowth, score 2 is neurite outgrowth to the nearby cell, and score 3 is markedly reticulated neurite outgrowth. The system wherein PC-12 cells were cultivated for 3 days with the addition of NGF alone was taken as a negative control, and system capable wherein the cells for 3 days without addition of NGF was taken as a positive control. […] Setting the score of the negative control as inhibitory activity 0%, and the score of the positive control as inhibitory activity 100%, the inhibitory activity (%) of the aptamer was calculated. An inhibitory activity of not less than 50% is shown with +, and that of less than 50% is shown with −.

Data set [4] has the same target. Nature of the data set: cell_activity; 100 nM aptamer; parent 92.7%. Particulars: tags: R&D Systems human NGF; chain copies: 2. The protocol: (§2) The neurite outgrowth inhibitory activity of aptamer was evaluated by using Neuroscreen-1 cell, which is a subclone of PC-12 cells. 2500 Cells per well were cultured for one day in an RPMI-1640 medium containing 2.5% horse serum and 1.25% fetal bovine serum in a 96 well flat-bottom plate coated with collagen type IV. A mixed solution of NGF (final concentration 15 ng/ml or 1.1 nM) prereacted in a serum-free RPMI-1640 medium at room temperature or 37° C. for 30 min to 1 hr and an aptamer (final concentration 500-3 nM) was added. Two or three days later, the cytoplasm and nuclei were stained using Cellomics Neurite Outgrowth Kits (manufactured by Thermo Scientific), and neurite length per cell was measured by Cellomics ArrayScan VTI (manufactured by Thermo Scientific). With the neurite length per cell obtained by culturing the cell for 2 days with the addition of NGF alone as inhibitory activity 0%, and that of the cell obtained by NGF free culture as inhibitory activity 100%, the inhibitory activity of the aptamer was calculated from the neurite length per cell obtained by culturing with the addition of NGF and the aptamer in mixture. […] When the inhibitory activity was 0% or below, ‘0%’ is indicated. When it was not less than 100%, ‘100%’ is indicated. The 50% inhibitory concentration was determined from the concentrations at two, above and below points sandwiching the 50% inhibitory activity.
Inverted dT is added to the 5′ and 3′ terminals. The activity was evaluated using Neuroscreen-1 cells in the same manner as in Example 8.

The target is the same in data set [5]. Nature of the data set: SPR; more than 30N; cell IC50 26.1 nM. Particulars: tags: R&D Systems human NGF; chain copies: 2.
For data set [6] the target is unchanged. In words: SPR; more than 30N; inhibits TrkA and P75 binding. Particulars: tags: R&D Systems human NGF; chain copies: 2. The method, then:
as §1

Data set [7] has the same target. In words: cell_activity; Neuroscreen-1 neurite outgrowth, 1.1 nM NGF. Particulars: tags: R&D Systems human NGF; chain copies: 2. The method, then:
as §2, with “When it was not less than 100%, ‘100%’ is indicated.” left out

T1 sequence (P01138 122-241, one chain of several): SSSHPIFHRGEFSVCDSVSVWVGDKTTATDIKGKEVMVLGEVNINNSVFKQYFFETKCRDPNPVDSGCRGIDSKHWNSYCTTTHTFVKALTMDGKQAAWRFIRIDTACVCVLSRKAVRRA

In data set [1], GGGAGCCUGUAAACAGCAGGUGAAAAAAACCC (ssRNA, 2'-F pyrimidines) [SEQ90 aptamer] had an activity of no less than 60 % inhibition.

In the case of GGGAAGCCUGUGGAGCUGCAGGAUGAAAAAAACCCAAA (ssRNA, 2'-F pyrimidines) [SEQ35 aptamer], the IC50 in data set [2] amounted to 0.0915 µM.

B1: SEQ35(2) (ssRNA)
RNA: GGGAAGCCUGUGGAGCUGCAGGAUGAAAAAAACCCAAA
modifications: 2'-F all pyrimidines; 2'-OMe at a4,a5,g6,g10,g18,a20,g21,g22,a29,a30,a31,a32; idT at 5' and 3' ends
In turn, B1 registered an activity in data set [3] of no less than 50 % inhibition. Molecule GGGAAGCCUGUGGAGCUGCAGGAUGAAAAAAACCCAAA (ssRNA, 2'-F all pyrimidines; 2'-OMe at a36,a37,a38) [SEQ35(3)] had an activity in data set [3] of no less than 50 % inhibition. In data set [1], GGGCUGUGGAGCUGCUUAAACAAGCAAGUGAAAAAAACCACAGCCC (ssRNA, 2'-F pyrimidines) [SEQ26 aptamer] returned an activity of no less than 60 % inhibition. Still for that read-out and setting: the same measure for GGGAAGCCUGUAAACAGCAGGAUGAAAAAAACCC (ssRNA, 2'-F pyrimidines) [SEQ89 aptamer]: no less than 60 % inhibition. Consider CGGAUAAAAAUAGAGUUUGAUAAACACCUGUAUUAAAACCG (ssRNA, as SEQ30(6) [as SEQ30(6) (positions not stated)]) [SEQ30(6) G1:C41 to C:G], for which the activity in data set [4] stood at 92 % inhibition.

B2: SEQ30(1) (ssRNA)
RNA: GGGAUAAAAAUAGAGUUUGAUAAACACCUGUAUUAAAACCC
modifications: 2'-F all pyrimidines; 2'-OMe at a12,g13,a14,g15,g19,a20,a22,a23,a24,a26; idT at 5' and 3' ends
B2 registered an activity in data set [3] of no less than 50 % inhibition.

GGGAUAAAAAUUGAGUUUGAUAAACACCUGAAUUAAAACCC (ssRNA, as SEQ30(6) [as SEQ30(6) (positions not stated)]) [SEQ30(6) A12:U31 to U:A]: the activity in data set [4] turned out to be 93.1 % inhibition. In the case of GGGAUAAAAAUAGAGUUUGAUAAACACCUGUAUUAAAACCC (ssRNA, 2'-F all pyrimidines; 2'-OMe at a9,a10) [SEQ30(2)], the activity in data set [3] was no less than 50 % inhibition. The same measure, in the same setting: to GGGAUAAAAAUAGAGUUUGAUAAACACCUGUAUUAAAACCC (ssRNA, 2'-F all pyrimidines; 2'-OMe at a35,a36) [SEQ30(3)] belongs no less than 50 % inhibition.

Regarding GGGAUAAAAUUAGAGUUUGAUAAACACCUGUAAUAAAACCC (ssRNA, as SEQ30(6) [as SEQ30(6) (positions not stated)]) [SEQ30(6) A10:U33 to U:A], the activity in data set [4] was 80.8 % inhibition.

B3: SEQ44 aptamer (ssRNA)
RNA: GGGGAACUUCGACCAGAAGUUUGAAAGAAACCCAAAAUUAGCACCAUAAUAUGUGCGCAUACAUGGAUCCUCA
modifications: 2'-F pyrimidines
For the molecule B3, the binding result in data set [5] was “binds”.

B4: SEQ32(1) (ssRNA)
RNA: UGUGGAGCUGCUUAAACAAGCAAGUGAAAAAAACCACA
modifications: 2'-F all pyrimidines; 2'-OMe at g10,a14,a15,a16,a18,a19,g20,a22,a23,g24; idT at 5' and 3' ends
For B4, the activity in data set [3] was no less than 50 % inhibition.

On to UGUGGAGCUGCUUAAACAAGCAAGUGAAAAAAACCACA (ssRNA, 2'-F all pyrimidines; 2'-OMe at a30,a31) [SEQ32(3)], for which, in data set [3], the activity is no less than 50 % inhibition.

UGUGGAGCUGCUUAAACAAGCAAGUGAAAAAAACCACA (ssRNA, 2'-F all pyrimidines; 2'-OMe at g2,a38) [SEQ32(2)] registered an activity in data set [3] of no less than 50 % inhibition. On to GGGAAGCCUGUGGAGCUGCAGGAUGAAAAAAACCC (ssRNA, 2'-F pyrimidines) [SEQ36 aptamer], for which the activity in data set [1] is no less than 60 % inhibition. GGAGCUGCCUACACUUUAGUAUGACAAACCUAGAGUGUAAAUGCUUC (ssRNA, 2'-F pyrimidines) [SEQ25 aptamer] registered an activity in data set [1] of no less than 60 % inhibition. The same measure, in the same setting: the same measure for GGGAAGCCUGUGGAGCUGCAGGAUGAAAAAAACCCAAAAUUAAAU (ssRNA, 2'-F pyrimidines) [SEQ27 aptamer]: no less than 60 % inhibition.

B5: SEQ60 aptamer (ssRNA)
RNA: GGGAGAACUUCGACCAGAGGAUUUGAAAAAAACCCGAAUAAAGAUAACAGUAUGUGCGCAUACAUGGAUCCUCA
modifications: 2'-F pyrimidines
B5: the binding result in data set [6] is “binds”. As for GGGAAGCCGUGGAGCUGCGGAUGAAAAAAACCC (ssRNA, 2'-F pyrimidines) [SEQ88 aptamer], the activity in data set [1] was no less than 60 % inhibition.

B6: SEQ68 aptamer (ssRNA)
RNA: GGGAGAACUUCGACCAGAAGUCGAGAGCGAAAGAAACUCCCAAAACACAGUAUGUGCGCAUACAUGGAUCCUCA
modifications: 2'-F pyrimidines
Consider B6, for which the IC50 in data set [7] was determined as 0.0019 µM.
